According to patent US20210324089A1 (ACCELERON PHARMA, published 2021):

Target: T1, human ALK7-Fc comprising protein (human, UniProt Q8NER5 22-113, limits assumed)
T1 construct: The wording 'ALK7-Fc comprising protein' leaves open whether further chains are present; also called human ALK7-Fe comprising protein; not shown: Fc portion
T1 sequence: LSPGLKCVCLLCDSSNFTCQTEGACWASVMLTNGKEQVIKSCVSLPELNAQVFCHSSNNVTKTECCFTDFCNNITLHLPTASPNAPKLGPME
Assay: SPR (Biacore T100/T200); antibody captured on FAB chip, ALK7-Fc comprising protein as analyte; 1:1 fit
Description: Experiments were performed using a Biacore T100/T200 biosensor (Biacore/GE Healthcare) at 25 and 37° C. ALK7 antibodies were captured on custom made FAB chip. A concentration series of ALK7-Fc comprising protein was injected over the flow cells at a flow rate of […]. To obtain kinetic rate constants the corrected data were fit to a 1:1 interaction model using BiaEvaluation software (GE Healthcare). The equilibrium binding constant KD was determined by the ratio of binding rate constants kd/ka.

koff: 0.000367 s⁻¹
B1: L01 (antibody, V domains shown)
VH: QVQLVQSGAEVKKPGSSVKVSCKASGGTFSSYAISWVRQAPGQGLEWMGSIIPIFGTANYAQKFQGRVTITADESTSTAYMELSSLRSEDTAVYYCARDPVGARYEVFDYWGQGTLVTVSS
VL: EIVMTQSPATLSVSPGERATLSCRASQSVSSNLAWYQQKPGQAPRLLIYSASTRATGIPARFSGSGSGTEFTLTISSLQSEDFAVYYCQQANTFPLTFGGGTKVEIK
notes: Human IgG from yeast libraries; also called LOL
